Results reported in paper PMC8000399.

Molecular target: adzuki bean (Vigna angularis) β-vignin protein (Vigna angularis (adzuki bean))
Assay: SEC; gel molecular sieving on a Sephadex G-200 column (50 cm x 2.5 cm) under native condition, 0.58 mL/min, room temperature; calibrated with standard proteins; apparent molecular size compared with the subunits' Mr from SDS-PAGE

- stoichiometry N: 3
Substance: adzuki bean (Vigna angularis) β-vignin protein (natural protein)
